The subject of this data set is T1, Oc1ccc2ccc3c4ccccc4cc4ccc1c2c43.
T1 construct: made in house; host or cells: Escherichia coli
The experiment in a line: Kinetics of 3-OH-BaP sulfonation by partially purified cDNA-expressed SULT1B1. Format: biochemical, human. Conditions: other: apparent, 3-OH-BaP as substrate. The text has this:
The expression of human SULT1A1*1, SULT1A3, SULT1B1, and SULT1E1 in Escherichia coli has been described previously ([Dajani et al. 1998]; [Wang et al. 1998]). We grew E. coli cells containing the respective sulfotransferase genes as described previously ([Falany et al. 1990], [1994]), and prepared 100,000g supernatant fractions for use in inhibition studies and for partial purification of the SULT enzymes. We purchased expressed SULT1A1*2 cytosolic extract from PanVera (Madison, WI) and used it as supplied.
The 100,000g supernatant fractions of SULT1A1*1, SULT1A3, SULT1B1, and SULT1E1 were partially purified by chromatographic methods ([Falany et al. 1990], [1994]). After the last step, a 3′-phosphoadenosine 5′-phosphate (PAP)-agarose affinity column, we dialyzed the fractions eluted with PAP with three changes of buffer to remove PAP before the assay of SULT activity with 3-OH-BaP as substrate. We analyzed active fractions by SDS-PAGE ([Laemmli 1970]) to assess the purity of each SULT enzyme. We stained the gels with Coomassie R-250 reagent and determined the percentage of protein present as each respective SULT enzyme by scanning densitometry.
We determined SULT activity with 3-OH-BaP as substrate by a fluorimetric assay of BaP-3-SO4 product formation, as described previously ([Wang et al. 2004]). […] Duplicate tubes were prepared for each incubation condition. We examined the kinetics of sulfonation in three liver cytosol fractions by systematically varying the concentration of 3-OH-BaP or PAPS. When the variable substrate was 3-OH-BaP, we used 12 concentrations in the range from 0.035 to 2.00 μM, and the concentration of PAPS was kept constant at 10 μM. […]
We determined the kinetic parameters for 3-OH-BaP sulfonation by partially purified preparations of the cDNA-expressed SULT isozymes under incubation conditions similar to those used for liver cytosol. […]
We calculated the enzyme kinetic parameters from studies with variable concentrations of 3-OH-BaP using nonlinear regression analysis and GraphPad 4.0 software (GraphPad Software, San Diego, CA). […]

In the case of SULT1B1 (Homo sapiens), the Km was 2.00 µM, the Vmax came to 0.0097 µmol/min/mg and the Vmax/Km is 4900 µL/min/mg.

Values taken from paper PMC1257591, “In Vitro Inhibition of Human Hepatic and cDNA-Expressed Sulfotransferase Activity with 3-Hydroxybenzo[a]pyrene by Polychlorobiphenylols” (Environmental Health Perspectives, 2005).
